The target of the data set is T1, wild type HIV-1 Tat protein, FLAG-tagged, expressed in cells.
T1 chain: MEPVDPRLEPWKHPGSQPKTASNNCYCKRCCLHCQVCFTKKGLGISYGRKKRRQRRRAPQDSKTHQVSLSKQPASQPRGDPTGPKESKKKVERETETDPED

Here are results for 1 protein from patent US20040043378.

B1: P/CAF (p300/CBP-associated factor), HA-tagged, expressed in cells (protein)
chain: MSEAGGAGPGGCGAGAGAGAGPGALPPQPAALPPAPPQGSPCAAAAGGSGACGPATAVAAAGTAEGPGGGGSARIAVKKAQLRSAPRAKKLEKLGVYSACKAEESCKCNGWKNPNPSPTPPRADLQQIIVSLTESCRSCSHALAAHVSHLENVSEEEMNRLLGIVLDVEYLFTCVHKEEDADTKQVYFYLFKLLRKSILQRGKPVVEGSLEKKPPFEKPSIEQGVNNFVQYKFSHLPAKERQTIVELAKMFLNRINYWHLEAPSQRRLRSPNDDISGYKENYTRWLCYCNVPQFCDSLPRYETTQVFGRTLLRSVFTVMRRQLLEQARQEKDKLPLEKRTLILTHFPKFLSMLEEEVYSQNSPIWDQDFLSASSRTSQLGIQTVINPPPVAGTISYNSTSSSLEQPNAGSSSPACKASSGLEANPGEKRKMTDSHVLEEAKKPRVMGDIPMELINEVMSTITDPAAMLGPETNFLSAHSARDEAARLEERRGVIEFHVVGNSLNQKPNKKILMWLVGLQNVFSHQLPRMPKEYITRLVFDPKHKTLALIKDGRVIGGICFRMFPSQGFTEIVFCAVTSNEQVKGYGTHLMNHLKEYHIKHDILNFLTYADEYAIGYFKKQGFSKEIKIPKTKYVGYIKDYEGATLMGCELNPRIPYTEFSVIIKKQKEIIKKLIERKQAQIRKVYPGLSCFKDGVRQIPIESIPGIRETGWKPSGKEKSKEPRDPDQLYSTLKSILQQVKSHQSAWPFMEPVKRTEAPGYYEVIRFPMDLKTMSERLKNRYYVSKKLFMADLQRVFTNCKEYNAAESEYYKCANILEKFFFSKIKEAGLIDK
B1: the “Superinduction of Tat transactivation activity” value was “as much as a 30-fold increase upon P/CAF stimulation”.
